We go through one molecule from paper PMC6520838, “Structural Insights to the Heterotetrameric Interaction between the Vibrio parahaemolyticus PirA^vp and PirB^vp Toxins and Activation of the Cry-Like Pore-Forming Domain” (Toxins, 2019).

Assay [1] addresses T1, N-terminal tagged His10-PirA^vp (Vibrio parahaemolyticus).
T1 chain: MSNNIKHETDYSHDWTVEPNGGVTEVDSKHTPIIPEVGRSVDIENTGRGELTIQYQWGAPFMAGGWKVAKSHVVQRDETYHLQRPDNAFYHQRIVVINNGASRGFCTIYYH
The assay is described as follows: ITC; iTC200; 1100 uM PirB^vp in the syringe injected into 110 uM PirA^vp in the cell, 19 injections of 2 uL, 25 °C; 30 mM Tris pH 8.0, 100 mM NaCl, 5% glycerol, 1 mM DTT; triplicate. To be noted: both partners purified.

Assay [2] has as its target T1, N-terminal tagged His10-PirA^vp. The assay is described as follows: SDS-PAGE densitometry of the complex collected from gel filtration; complex fractions eluted at 12.5 to 13 mL, serially diluted, SDS-PAGE; bands quantified with Image J against standard curves of PirA^vp and PirB^vp. To be noted: both partners purified. A general note: Size exclusion chromatography separates by hydrodynamic size, large species first.

B1: C-terminal tagged His6-PirB^vp (natural protein)
chain: MTNEYVVTMSSLTEFNPNNARKSYLFDNYEVDPNYAFKAMVSFGLSNIPYAGGFLSTLWNIFWPNTPNEPDIENIWEQLRDRIQDLVDESIIDAINGILDSKIKETRDKIQDINETIENFGYAAAKDDYIGLVTHYLIGLEENFKRELDGDEWLGYAILPLLATTVSLQITYMACGLDYKDEFGFTDSDVHKLTRNIDKLYDDVSSYITELAAWADNDSYNNANQDNVYDEVMGARSWCTVHGFEHMLIWQKIKELKKVDVFVHSNLISYSPAVGFPSGNFNYIATGTEDEIPQPLKPNMFGERRNRIVKIESWNSIEIHYYNRVGRLKLTYENGEVVELGKAHKYDEHYQSIELNGAYIKYVDVIANGPEAIDRIVFHFSDDRTFVVGENSGKPSVRLQLEGHFICGMLADQEGSDKVAAFSVAYELFHPDEFGTEK
As to B1, in assay [1], the equilibrium dissociation constant (Kd) was 7.33 ± 1.2 µM, the dH is -107 ± 5.94 kJ/mol and the “stoichiometry N” value worked out at 0.74 ± 0.01. In addition, in assay [2], the “stoichiometry N” value turned out to be 1.1 PirA^vp per PirB^vp.

By Kd is commonly meant the concentration at which binding is half-saturated. A low value points to tighter binding. One may read the stoichiometry N as a count of units in the complex or per binding partner.
